The record followed here is paper PMC10783490, “Biochemical and cellular insights into the Baz2B protein, a non-catalytic subunit of the chromatin remodeling complex” (Nucleic Acids Research, 2023).

Holding throughout (test): MST; 100 nM fluorescently labelled (RED-NHS) BRD^Baz2B, peptide (H3 or H3K14ac) titrated; MST buffer 150 mM Tris-HCl, 50 mM NaCl, 10 mM MgCl2, pH 7.6, 0.0025% Pluronic, 200 ng/ul BSA; 25 C, 20% MST power; at least triplicate
What all share (conditions): both partners purified

In assay [1] the target is T1, His6-BRD^Baz2B (bromodomain of human Baz2B, wild-type) (human, UniProt Q9UIF8 2054-2168, fluorescent label (Monolith NT Protein Labelling Kit RED-NHS)).
T1 construct: bromodomain (BRD) of human Baz2B, from plasmid pNIC28-Bsa4-BAZ2B-BRD; also called BAZ2B-BRD; source: E. coli BL21(DE3)-R3-pRARE2, purified (Ni-NTA, Sephadex 75)
T1 sequence: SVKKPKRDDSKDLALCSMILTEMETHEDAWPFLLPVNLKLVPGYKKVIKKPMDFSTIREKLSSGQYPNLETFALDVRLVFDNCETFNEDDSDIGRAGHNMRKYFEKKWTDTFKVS

In a further assay the target is T2, BRD^Baz2B T2138I (human, UniProt Q9UIF8 2054-2168, T2138I, fluorescent label (Monolith NT Protein Labelling Kit RED-NHS)).
T2 construct: bromodomain (BRD) of human Baz2B with a cancer-associated point mutation, made on pNIC28-Bsa4-BAZ2B-BRD; Same limits as m1; mutation found in multiple myeloma; source: E. coli BL21(DE3)-R3-pRARE2, purified (Ni-NTA, Sephadex 75)
T2 sequence: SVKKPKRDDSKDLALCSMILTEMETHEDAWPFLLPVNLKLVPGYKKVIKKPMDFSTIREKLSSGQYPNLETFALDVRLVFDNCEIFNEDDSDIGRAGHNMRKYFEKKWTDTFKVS

The target in a further assay is T3, BRD^Baz2B L2073V (human, UniProt Q9UIF8 2054-2168, L2073V, fluorescent label (Monolith NT Protein Labelling Kit RED-NHS)).
T3 construct: bromodomain (BRD) of human Baz2B with a cancer-associated point mutation, made on pNIC28-Bsa4-BAZ2B-BRD; Same limits as m1; mutation found in pancreatic cancer (COSMIC/ICGC); source: E. coli BL21(DE3)-R3-pRARE2, purified (Ni-NTA, Sephadex 75)
T3 sequence: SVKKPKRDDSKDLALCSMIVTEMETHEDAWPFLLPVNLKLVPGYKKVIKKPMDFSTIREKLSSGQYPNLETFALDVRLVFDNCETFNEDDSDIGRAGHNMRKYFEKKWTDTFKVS

A further assay concerns the target T4, BRD^Baz2B D2143N (human, UniProt Q9UIF8 2054-2168, D2143N, fluorescent label (Monolith NT Protein Labelling Kit RED-NHS)).
T4 construct: bromodomain (BRD) of human Baz2B with a cancer-associated point mutation, made on pNIC28-Bsa4-BAZ2B-BRD; Same limits as m1; mutation found in breast invasive carcinoma; source: E. coli BL21(DE3)-R3-pRARE2, purified (Ni-NTA, Sephadex 75)
T4 sequence: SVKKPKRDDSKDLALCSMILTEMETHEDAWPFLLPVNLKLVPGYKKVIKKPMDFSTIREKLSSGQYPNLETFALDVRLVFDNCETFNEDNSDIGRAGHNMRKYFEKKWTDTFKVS

In assay [2] the target is T1, His6-BRD^Baz2B (bromodomain of human …). This is another data set of the same source.
The target in the next assay is T5, BRD^Baz2B L2127V (human, UniProt Q9UIF8 2054-2168, L2127V, fluorescent label (Monolith NT Protein Labelling Kit RED-NHS)).
T5 construct: bromodomain (BRD) of human Baz2B with a cancer-associated point mutation, made on pNIC28-Bsa4-BAZ2B-BRD; Same limits as m1; mutation found in breast cancer; source: E. coli BL21(DE3)-R3-pRARE2, purified (Ni-NTA, Sephadex 75)
T5 sequence: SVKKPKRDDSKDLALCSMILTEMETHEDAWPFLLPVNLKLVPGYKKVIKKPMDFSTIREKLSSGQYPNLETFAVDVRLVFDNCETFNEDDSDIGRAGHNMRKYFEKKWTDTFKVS

A further assay deals with T6, BRD^Baz2B K2098N (human, UniProt Q9UIF8 2054-2168, K2098N, fluorescent label (Monolith NT Protein Labelling Kit RED-NHS)).
T6 construct: bromodomain (BRD) of human Baz2B with a cancer-associated point mutation, made on pNIC28-Bsa4-BAZ2B-BRD; Same limits as m1; mutation found in multiple myeloma; source: E. coli BL21(DE3)-R3-pRARE2, purified (Ni-NTA, Sephadex 75)
T6 sequence: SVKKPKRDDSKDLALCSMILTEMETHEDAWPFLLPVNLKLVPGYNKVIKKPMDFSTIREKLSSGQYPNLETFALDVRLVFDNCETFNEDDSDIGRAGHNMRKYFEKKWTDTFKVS

A further assay concerns the target T7, BRD^Baz2B F2139C (human, UniProt Q9UIF8 2054-2168, F2139C, fluorescent label (Monolith NT Protein Labelling Kit RED-NHS)).
T7 construct: bromodomain (BRD) of human Baz2B with a cancer-associated point mutation, made on pNIC28-Bsa4-BAZ2B-BRD; Same limits as m1; mutation found in endometrial cancer; source: E. coli BL21(DE3)-R3-pRARE2, purified (Ni-NTA, Sephadex 75)
T7 sequence: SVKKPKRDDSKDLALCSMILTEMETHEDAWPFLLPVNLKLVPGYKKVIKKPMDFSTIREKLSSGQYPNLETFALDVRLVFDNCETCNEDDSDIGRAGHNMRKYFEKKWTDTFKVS

Bounds are passed on as bounds.

B1: H3 peptide (Ac-TARKSTGGKAPRKQL-NH2) (peptide)
peptide: Ac-TARKSTGGKAPRKQL-NH2
notes: N-terminal tail of histone H3, residues 6-20; also called unmodified H3 peptide; unmodified H3K14 tail peptide; source: synthetic peptide, bought: alta Bioscience
With B1, the Kd in assay [1] is 288 µM; with BRD^Baz2B T2138I, 211 µM; in the assay with BRD^Baz2B L2073V, 7 µM; with BRD^Baz2B D2143N it was 42 µM; in assay [2] it was greater than 288 µM; with BRD^Baz2B L2127V it was 1.7 µM. Moreover, the Kd is 8 µM with BRD^Baz2B K2098N and greater than 798 µM in the assay with BRD^Baz2B F2139C.

In general, Kd refers to the constant that tells how readily two partners part at equilibrium. Read a high Kd as lower affinity.
